# Data: US20240166695A1 (University of California, published 2024)
# B1: De1 (designed binder)
# chain: NGYSSEDKLRIAKRHLLPKQIERNALKKGELFVSEFAILGIILFYTDEAGVRGLEREISKLCRKAVKQLLLDKSTTSSHASGFHLHDYLGVMR
# notes: For SPR: expressed from pET-32a in E. coli BL21(DE3), purified on a Ni column and by HPLC; also called Del; designed protein De1
# Columns and labels:
# TRPV1 = test: cell-based or functional assay
# ARD of TRPV1 = molecular target: T1, ARD of TRPV1 (Rattus norvegicus (Rat), UniProt O35433 101-364); test: SPR steady state, ARD immobilised on CM5 chip, design as analyte, 25 C
# T1 construct: Purified from E. coli and immobilised on a CM5 chip by amine coupling; also called TRPV1 ARD; ankyrin repeat-like domain
# T1 sequence (O35433 other isoform, or with tags, fused parts or gaps limits assumed): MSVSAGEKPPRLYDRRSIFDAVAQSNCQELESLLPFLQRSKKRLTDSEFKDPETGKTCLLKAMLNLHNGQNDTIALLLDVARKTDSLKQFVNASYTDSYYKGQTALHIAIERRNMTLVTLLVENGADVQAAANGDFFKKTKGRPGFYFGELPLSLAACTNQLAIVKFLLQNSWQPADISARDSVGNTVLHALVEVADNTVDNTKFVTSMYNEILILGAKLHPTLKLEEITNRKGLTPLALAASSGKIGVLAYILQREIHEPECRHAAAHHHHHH
# Description: The purified ARD was immobilized on the CM5 SPR sensor chip by an amine-coupling procedure. SPR experiments were conducted on the Biacore T3000 instrument (GE healthcare). The designed proteins were perfused as analytes. Steady-state SPR responses were measured and used to determine the KD values. In all experiments, the analysis was performed at 25° C., with an association time of 120 see at a flow rate of 20 μL/min.
binder,measurement,setting,value
B1,EC50 of capsaicin activation of TRPV1 co-expressed with De1 (whole-cell patch clamp),TRPV1,50.9 nM
same,Kd,ARD of TRPV1,26.5 nM
